Measured values reported in patent publication US20260123609A1.

Key:
[1] = target: mouse CD98HC (NP_001154885.1) (mouse) (UniProt P10852); assay: flow cytometry, spleen B cells (mCD45+ mCD19+) of wild-type C57BL/6 mouse
[2] = target: humanized CD98HC protein (human/mouse chimeric (human amino acids 215-630 of SEQ ID NO: 2 in place of mouse amino acids 147-565 of SEQ ID NO: 1)) (UniProt P08195); assay: flow cytometry, spleen B cells (mCD45+ mCD19+) of CD98HC humanized homozygous mouse (H/H)
[3] = target: humanized CD98HC protein (human/mouse chimeric (human amino acids 215-630 of SEQ ID NO: 2 in place of mouse amino acids 147-565 of SEQ ID NO: 1)) (UniProt P08195); assay: flow cytometry, spleen T cells (mCD45+ mTCR β+) of CD98HC humanized homozygous mouse (H/H)
[4] = target: mouse CD98HC (NP_001154885.1) (mouse) (UniProt P10852); assay: flow cytometry, spleen T cells (mCD45+ mTCR β+) of wild-type C57BL/6 mouse

Sequence of UniProt P10852 (P10852 other isoform, or with tags, fused parts or gaps): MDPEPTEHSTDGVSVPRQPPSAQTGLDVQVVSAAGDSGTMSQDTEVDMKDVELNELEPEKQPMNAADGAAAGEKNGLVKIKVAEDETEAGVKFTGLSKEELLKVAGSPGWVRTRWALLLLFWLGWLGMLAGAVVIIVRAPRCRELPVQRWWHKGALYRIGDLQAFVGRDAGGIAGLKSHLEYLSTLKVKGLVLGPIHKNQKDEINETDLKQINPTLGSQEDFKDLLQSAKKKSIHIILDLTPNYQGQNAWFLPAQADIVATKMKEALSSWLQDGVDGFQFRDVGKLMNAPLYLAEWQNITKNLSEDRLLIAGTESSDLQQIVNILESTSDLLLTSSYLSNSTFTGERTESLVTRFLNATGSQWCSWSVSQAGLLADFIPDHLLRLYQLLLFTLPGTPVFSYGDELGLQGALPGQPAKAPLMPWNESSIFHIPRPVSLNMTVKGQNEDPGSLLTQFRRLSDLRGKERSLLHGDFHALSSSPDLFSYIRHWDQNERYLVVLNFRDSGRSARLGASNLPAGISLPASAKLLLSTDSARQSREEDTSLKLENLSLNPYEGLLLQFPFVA
Sequence of UniProt P08195 (P08195 other isoform, or with tags, fused parts or gaps mutant limits assumed): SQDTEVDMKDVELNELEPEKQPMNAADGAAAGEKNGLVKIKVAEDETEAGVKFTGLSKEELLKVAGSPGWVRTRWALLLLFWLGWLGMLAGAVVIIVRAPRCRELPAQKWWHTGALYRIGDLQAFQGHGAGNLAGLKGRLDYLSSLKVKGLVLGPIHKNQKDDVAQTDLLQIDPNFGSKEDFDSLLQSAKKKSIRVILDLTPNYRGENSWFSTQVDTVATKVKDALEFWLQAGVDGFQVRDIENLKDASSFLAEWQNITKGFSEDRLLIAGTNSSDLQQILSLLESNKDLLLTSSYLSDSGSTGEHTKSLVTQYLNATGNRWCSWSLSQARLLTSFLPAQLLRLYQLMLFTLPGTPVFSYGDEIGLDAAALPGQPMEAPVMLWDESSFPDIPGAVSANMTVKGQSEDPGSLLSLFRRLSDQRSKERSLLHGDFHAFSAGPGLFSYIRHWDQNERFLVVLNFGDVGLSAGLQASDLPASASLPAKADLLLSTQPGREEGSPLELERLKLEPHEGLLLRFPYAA

percentage of positive cells [1] [%] | percentage of positive cells [2] [%] | percentage of positive cells [3] [%] | percentage of positive cells [4] [%] | Substance
17.2 | 0.3 | 0.27 | 14.7 | APC anti-mouse CD98 (4F2) Antibody (Biolegend, Catalog number: 128211)
0.82 | 27.1 | 27.6 | 0.45 | FITC anti-human CD98 Antibody (Biolegend, Catalog number: 315603)
